Entries after “also recorded” stand apart in the source; their conditions may differ.
Test system: SARS-CoV-2 (WT, D614G)
Assay type: cell-based

Molecule | inhibition of SARS-CoV-2 WT (D614G) infection (in words) | inhibition of SARS-CoV-2 replication / infection (50 µM) [%] | inhibition of SARS-CoV-2 replication | inhibition of viral replication, full time treatment (50 µM) [%] | viral inhibition, treatment limited to viral entry (50 µM)
B3-WT: Wild type recombinant SerpinB3 (SCCA-1), 44.5 kDa cross-class inhibitor of cysteine proteases including CatL; SEQ ID No. 5 (protein, listed as Homo sapiens) MNSLSEANTKFMFDLFQQFRKSKENNIFYSPISITSALGMVLLGAKDNTAQQIKKVLHFDQVTENTTGKAATYHVDRSGNVHHQFQKLLTEFNKSTDAYELKIANKLFGEKTYLFLQEYLDAIKKFYQTSVESVDFANAPEESRKKINSWVESQTNEKIKNLIPEGNIGSNTTLVLVNAIYFKGQWEKKFNKEDTKEEKFWPNKNTYKSIQMMRQYTSFHFASLEDVQAKVLEIPYKGKDLSMIVLLPNEIDGLQKLEEKLTAEKLMEWTSLQNMRETRVDLHLPRFKVEESYDLKDTLRTMGMVDIFNGDADLSGMTGSRGLVLSGVLHKAFVEVTEEGAEAAAATAVVGFGSSPTSTNEEFHCNHPFLFFIRQNKTNSILFYGRFSSP | reductions in SARS-CoV-2 infection | 50 | – | – | –
B3-TMP: SerpinB3 variant with RCL residues 350 to 354 (P4 to P1′) replaced by IQFRV to inhibit TMPRSS2; SEQ ID No. 6 (protein) MNSLSEANTKFMFDLFQQFRKSKENNIFYSPISITSALGMVLLGAKDNTAQQIKKVLHFDQVTENTTGKAATYHVDRSGNVHHQFQKLLTEFNKSTDAYELKIANKLFGEKTYLFLQEYLDAIKKFYQTSVESVDFANAPEESRKKINSWVESQTNEKIKNLIPEGNIGSNTTLVLVNAIYFKGQWEKKFNKEDTKEEKFWPNKNTYKSIQMMRQYTSFHFASLEDVQAKVLEIPYKGKDLSMIVLLPNEIDGLQKLEEKLTAEKLMEWTSLQNMRETRVDLHLPRFKVEESYDLKDTLRTMGMVDIFNGDADLSGMTGSRGLVLSGVLHKAFVEVTEEGAEAAAATAVIQFRVSPTSTNEEFHCNHPFLFFIRQNKTNSILFYGRFSSP | good dose-dependent downregulation of viral replication; also recorded: greater inhibitor for both viral strains than WT-SerpinB3 | – | up to 50% | 93 | up to 70%
